Assay results: a protein production outcome set (Wang et al. 2014)

Test: label from the status in PepcDB records
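Further: failed if final PepcDB status was selected cloned or expressed and not failed if soluble or beyond.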

Question: With “MRTATSTSPATGTPAPVPSRTPDVTVTVIVYNDAGRLPRAVASALRQSHANIEVVISDDHSTDATEEVARELAAHDPRVVYLRLPENSGGCSAPRNRALEIARAPYLMFLDSDDELPERAVEVLLAAHRERDLDFAMGAVHRIREDGGRRTTWMPHLVAERRTLDGIEADPRLLFEHLSTSKMYARAFLDRHGLRFPEGIHYEDQLFSAQAYCLAKTFTVVPEPVYRWYIAPYADADSASISNQRHKLTNVRDRVHVQRLIDAFLAESGHEALREDKDFKFLKHDFRMYAGDLPYRDDTWLASFADLMNPYLDTLAEGAYARLPRAERVVLRLLRDRRLSDVRTAARGLGHDVAPRRVTPDEQSGRVYWGEEVPASPESRRELDLTDLDLDTRPFFTALLRHEITEITRGPGASVDLTVRTYDPALRLPVGPQRAVLHLSPGPRRLTVPFRLSPVRPGLFEGRVRLDLAAARLPLHGFAGTRHPVLRLRHRGRTHTGILLAPLAFPPLTARVPYRTGLTPHRVTLRPEGHNPGRLQITWQPVGTTAKILGPAARRLSTPRTRRAARLLSNILRLEHHHHHH” as the sequence, how does the protein production read?
Answer: not failed

Question: Which protein production does the source give for “MRTLIILLLCTNTSFAIAQISPKAVEKNNQSVKTAGFFNDSDSLNKAIHLSDEAIALEPSYKLAYANKIKYLMALGQKEKALQTMLQMEKFSPDDPYYILGKGMMLEENAKKSLAMDAYKQAASLFKKRLKEKPTEADLMNYVFVLFLRDNKNYSLDEIEKEYPQIFSPAIRQHTKKLIDELSNKREDVIHEMLGGK” here?
Answer: failed

Question: Which protein production does the source give for “MRTPLIDRRDFLRAAGIGFAAVMAPSAWAKTLAANAVFATAFVKRDGSFGAAILSEAGKVLHAIDLPDRGHDVTFDPISKRSVVFARQPGTFAVVFDHSGRDAPQTVASISGRHFFGHGVFSPDGALLYATENDFDNAAGVIGIYDARAKFSRVGEFPTYGMGPHELLLLGDGRTMAVANGGIETHPDYGRAELNIATMKPSYVLIDRVTGDLIEKHELPASLHQLSIRHMDTDPSGTVWFGCQYRGPGTDRPLLVGRAVRGKELQLLDMPQDVLSGFRNYIGSVAANLSAGSVAVSSPEGNSLVVIDAASGRVVSSSALVEVCGLAPDGSGFIATTGAGEIIEGSGATRSEPDYVWDNHMLRIERA” here?
Answer: failed

Question: With “MRTSNPMLKKEAFRKEGASASAMTIGGTVGKTFIMLILLLATSVYSYIQMMQGTMKMPVLIGALIVAAIIAFASMFFPRISPFGAPIYAAVEGVVLGSISAVYTMKFGDSIVLNAVLLTISILFAMLVLYATRVVKVTDKFRTGVMAATLGIMVMYLVVFLLNMFGVTVPYIHQGGTIGIIISAVVIVVAALNLLLDFDLIENGVRSQAPKYMEWYTAMGLMLTLVWLYLEILRFVSYFTKND” as the sequence, how does the protein production read?
Answer: not failed

Question: With “MRTTHSPATAAGRTLGRVLKAVLSLLVLAAAVAGLPLLLAWVTPAIWASSHDDLTHLLDRQDTGAAFLLLLVAVGWIGWAQFAFCAVRELIAQVGGRSWQAPRRLGASQRAAALLVGSILVLLPTSSALASDAHASPATTEARVPGQAPAPQTAEPDQTLPDSASTPASRTSYTVRATRPAQSLWGIAERELGDGERWREIAALNEGRTMVDGQVFRAHGFLQPGWQLEMPDTAAAAGGIRTQLGRAAPTAEGKNEHVVTVHSGDYLSKIAEEELGDGGEWPRLFKASRGKTQPDGLPAISDPDVIYAGQQVTVPGAQPDPHTPPRDGDNGDEAGSQETTPPATQKPDGKQKPGDDRRDEQAPAPGTTTAPAPESSAPSTPASRPAEQPGQEQGSPSATASATPRPGTSPAPSAAAPSATAEAPGSADSSPATTASETPPPAPAPAPASSPLNLRTVLGAGTLLAAAITGALALRRTLQRRRRTPGEKIAIASETSPAEAKLAAAAEPGGAARLDVALRTLAHQVAHEKAADLPPIRAARIGTRTVEVLPEGLARKPQAPFVAGQAGWWVLPAEAVLLDEETAREVPAPYPGLVTIGSTESGDLLLLNLPQVAALLLDGNPVHITEVCTSLALELGMSPWASEAEIVTIGFGEDLPQLLPTSRIAHMRHARHALRDLSERLLEAHQMPETSHQPYLLLCASTLDADLAWQFADIIDKAQHVPVTLIAPASAAAASFPDAEILNASLSKPQQFDYIGSEITVQRLEHAAYLQITTALAISAQPADPAEGPWEEVPHEPDTPQRPRPLDLAKPTQSGDGEKPVPASPFTAGTGDSEIYPALLAASTDPASLKLLPDPKAPGKAPAEPGTEPAEMTPDGRAPQKAAEATGRPQETPAAEAVGEDTQAQDLHAPEIRVLGPVEVTGVATTGHGPSQARLAALLYFRPGRSADVLCADMDPVSPWSTATLNARLQGLRRALGNDPAGNAYVPRRRSGDDPYELSEAVRCDWARFTQLAQRALPQGTAGLPDLEKALGLIRGRPFGTRPLPWAEPYQQEMSTRIIDVAHTVATYRTPTGPHHDLTAARQAIATGLDVDDSAELLYRDWMRIEHAAGNRAGLHTAITRIQDINRKIDCSLENETEQLINDLLGPTGGRARGR” as the sequence, how does the protein production read?
Answer: failed

Question: Which protein production does the source give for “MRVAIPAEDDRGIKSNVSKHFGRSRYFVFVDIEGEDVKNVEVVEVPFEEHGPGDLPNFIKDHGAKIVLTYGIGRRAIEYFNSLGISVVTGVYGRISDVIKAFIGGKLKIDYDWKEKIEKEH” here?
Answer: not failed

Question: Which protein production does the source give for “MRVEIWSDIACPWCYVGKARFEKALAAFPHRDGVEVVHRSFELDPGRAKDDVQPVLTMLTAKYGMSQEQAQAGEDNLGAQAAAEGLAYRTRDRDHGSTFDLHRLLHLAKERGRHEALLDAFYRGNFADERSVFNDDERLVELAVGAGLDAEEVRAVLADPAAYADEVRADEREAAQLGATGVPFFVLDRAYGVSGAQPAEVFTQALTQAWGERTPLKLIDDGGAEACGPDGCAVPGH” here?
Answer: not failed

Question: For “MRVHASSPDNKLQVFAIAGTKAILLAMNMDDSLLQGFHGFAFRRRVANGQWEWLTGLKVFVDVFPEGGPVIKKGKVGRFPTNEHPIQSFLWSDYRASPGTKYEFEISAMFGPIAKLEAYYAATLAITTEQEDDGKHGIWFNLGAIASQAFAEKFGNKPLSDADYNDPDNEEVAFLSRGLLEACIEFIRETPAGDALRIVAYEFTFKRILLELKAALERGVDVRIVYHATTANEKAIADAKLPENSKGVQILFKRTRPQTPHNKFIVRLKKGKTPVSVWTGSTNFTPSGFLGQTNVGHKVTDGDIAKIYLQLWEGLKADPDDFDATQAAMALTPNPANVVGTGTTLVFSPRPSPKMLDWYGHRAADAVNAVMFTAAFKVDERILSALADTDTSMRFILLEQPPSAEVQAARRANPADLELSYGAILGKTKMLTEERTGRDATGKKVTKIVPIPNFKIEKWFLKEELERQSGDGFVFYVHTKFLLVDPFSDDPLVCTGSANFSGASLTSNDENMLLIRGDTRVADIYLTEYDRVFRHFYSRDVINDIAKKGGPVNVGKLDPTDKWWQPYYDAKLAKSHKRRMFFEDPKKHWIESATQDGNVFAKEKPLKKPQ”, which protein production is on record?
Answer: failed

Question: Which protein production does the source give for “MRVKICGITRLEDALLAEALGAFALGFVLAPGSRRRIAPEAARAIGEALGPFVVRVGVFRDQPPEEVLRLMEEARLQVAQLHGEEPPEWAEAVGRFYPVIKAFPLEGPARPEWADYPAQALLLDGKRPGSGEAYPRAWAKPLLATGRRVILAGGIAPENLEEVLALRPYALDLASGVEEAPGVKSAEKLRALFARLASLRMEG” here?
Answer: not failed

Question: Which protein production does the source give for “MRVTWEEAGWESVAPFVGRRRLPGWDCTVGLVIGDSAALMIDAGSSLREGALLRAEAQRLLGPGRRVTHLALTHPHFDHVFGAAAFSGVEVFGAVGLDTALAHGREELRADAVRNGLDPRAAEGAADLLVRPRHHVFGEWTLDLGGEVQVLLANVGPGHTAYDLAVLVSSSPEVVFCGDLVEESGEPQAGPDAIPSHWPAALDRLLDLGGQDAVYVPGHGATVDAAFVRTQRDELAARFGIA” here?
Answer: failed

Question: Which protein production does the source give for “MRVVALVPGGIGDQILFFPTLDDLKRYYPNAQLDVVVEPRSKAAYRVSKSVNDILTFDYKDRNSLADWGNLVGTIRDREYDVVITVGQSWLVGLFLWLTGIPTRIGYQGKGRSFLTKTVPFKPSQYAAAVYHDLLAPIGITTPTPELEHHHHHH” here?
Answer: failed

Question: With “MRVVVTGATGFVGQQVVKALSDRGDQVVALVRSPGKAAKQFAGVPRVEWLGYTPKAAGDWFSALEGADAVIHLAGEPLANGRWTPQRKQEIYDSRVVGTQQLVQAIAQCQQRPRVLVSTSAIGYYGTSDTETFVETHAAGNDFLAKVCGDWEAAAQGVTELGVRLVILRFGIVLGEQGALAKLLLPFQLYLGGPLGSGQQWFSWIHQQDLVRLILTAVDQVGMQGVYNATAPEPLRMADFCRILAEVMQRPSWLPVPAPVLQLLLGEGADVVLKGQRVLPERTLATGFEFHYPNAKTALTNLLKPRYTEGSRLEHHHHHH” as the sequence, how does the protein production read?
Answer: not failed

Question: For “MRYCRRIGDGHITANSRRMFMVEPAGRKPDPQRRTPHPSVAPADAPWPAHSPVDPAVRRFRGAARYAIWRRGAEWTAVADGPQWSAALAPRIWALRQRQWPVLAVSAPMLVVAGAVALAGVQGWSPVAWTALLVAEVLLRVWVARQAGPWRTAALQRTGWQLVTRLRAISVADAVTTAQIRAGRPQR”, which protein production is on record?
Answer: failed
